From US20140087995A1 (published 2014)
Numbered stars: 1 amine (or outer) side, 2 acyl side, 3 side chain; on linkers, the order of the positions; unused ones are H or OH. Bridge positions count the residues as written; N and C are the ends. Side chains are listed from the residue outwards. Ends that are not written are not given here. * marks the point of attachment. C20 diacid = O=C(O)CCCCCCCCCCCCCCCCCCC(=O)*; γGlu = O=C(O)[C@H](CCC(=O)[*:2])N[*:1]

T1: human amylin receptor (Amylin 3(a) receptor: human calcitonin receptor co-expressed with RAMP-3) (human, UniProt P30988 25-474; O60896 24-148, limits assumed)
T1 construct: whole, on cells; Used as cell membranes prepared from the Amylin 3(a)/CRE-luc BHK cells (Assay V); the complex is called the human amylin receptor; also called hAmylin-R; hAmylinR
T1 sequence (looked up) 1: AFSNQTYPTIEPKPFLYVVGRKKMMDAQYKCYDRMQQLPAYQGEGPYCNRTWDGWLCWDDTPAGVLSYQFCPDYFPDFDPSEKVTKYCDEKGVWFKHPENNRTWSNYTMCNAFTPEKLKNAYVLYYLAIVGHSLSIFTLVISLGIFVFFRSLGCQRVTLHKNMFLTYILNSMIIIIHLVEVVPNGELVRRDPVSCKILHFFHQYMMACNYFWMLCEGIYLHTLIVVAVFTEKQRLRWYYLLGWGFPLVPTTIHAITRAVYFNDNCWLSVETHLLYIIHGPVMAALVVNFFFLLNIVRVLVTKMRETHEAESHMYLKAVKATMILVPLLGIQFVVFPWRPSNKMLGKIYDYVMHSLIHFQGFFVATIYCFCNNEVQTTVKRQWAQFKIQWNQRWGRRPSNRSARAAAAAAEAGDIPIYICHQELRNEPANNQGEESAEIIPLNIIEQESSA
T1 sequence (looked up) 2: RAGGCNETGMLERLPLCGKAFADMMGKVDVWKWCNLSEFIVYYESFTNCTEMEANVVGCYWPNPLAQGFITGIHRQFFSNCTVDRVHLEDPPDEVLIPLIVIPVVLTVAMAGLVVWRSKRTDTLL


These binders were tested against T1, human amylin receptor (Amylin 3(a) …) (assay: SPA competition binding, displacement of 125I-rat amylin from membranes of BHK cells with human calcitonin receptor + RAMP-3 (Assay V)).
Protocol: The binding assay was performed using scintillation proximity assay (SPA) beads (RPNQ0001) from PerkinElmer and cell membranes from the Amylin 3(a)/CRE-luc cells (as described in Assay (II)) were used. Membranes were prepared in the following way; the cells were rinsed with PBS and incubated with Versene for approximately 5 min before harvesting. The cells were flushed with PBS and the cell-suspension was centrifuged for 5 min at 1000 rpm. Cells were homogenized (ultrathurrax) in a buffer containing 20 mM Na-HEPES and 10 mM EDTA (pH 7.4) and centrifuged at 20.000 rpm for 15 min. The resulting pellet was resuspended, homogenized and centrifuged (20.000 rpm, 15 min) in a buffer containing 20 mM Na-HEPES and 0.1 mM EDTA (pH 7.4, buffer 2). The resulting pellet was resuspended in buffer 2 and protein concentration was measured (BCA protein Assay, Pierce). The homogenate was kept cold during the whole procedure. The membranes were kept at −80° C. until use. The assay was performed in a 384 well Optiplate (PerkinElmer) in a total volume of 40 ul. Membranes were mixed with SPA beads. Final concentration of membranes 35 ng/μL final and SPA beads was 0.05 mg/well. Test-compounds were dissolved in DMSO and further diluted in assay buffer (50 mM Hepes, pH 7.4, 1 mM CaCl2, 5 mM MgCl₂, 0.1% OA and 0.02% Tween20). […] The final mixture was incubated with shaking at 400 rpm for 120 min at 25° C. prior to centrifugation (1500 rpm, 10 min). Samples were analyzed on TopCounter™ (Packard). The IC₅₀ was calculated using (one site binding competition analysis) GraphPad Prism5 as a measure of receptor affinity.

Binder	IC50 [nM]
K([γGlu-C20 diacid])CNTATCATQRLAEFLRHSSPNFGAIPSSTNVGHETY-NH2 (disulfide 2-7; N-terminus assumed; SMILES CC[C@H](C)[C@H](NC(=O)[C@H](C)NC(=O)CNC(=O)[C@H](Cc1ccccc1)NC(=O)[C@H](CC(N)=O)NC(=O)[C@@H]1CCCN1C(=O)[C@H](CO)NC(=O)[C@H](CO)NC(=O)[C@H](Cc1c[nH]cn1)NC(=O)[C@H](CCCNC(=N)N)NC(=O)[C@H](CC(C)C)NC(=O)[C@H](Cc1ccccc1)NC(=O)[C@H](CCC(=O)O)NC(=O)[C@H](C)NC(=O)[C@H](CC(C)C)NC(=O)[C@H](CCCNC(=N)N)NC(=O)[C@H](CCC(N)=O)NC(=O)[C@@H](NC(=O)[C@H](C)NC(=O)[C@@H]1CSSC[C@H](NC(=O)[C@@H](N)CCCCNC(=O)CC[C@H](NC(=O)CCCCCCCCCCCCCCCCCCC(=O)O)C(=O)O)C(=O)N[C@@H](CC(N)=O)C(=O)N[C@@H]([C@@H](C)O)C(=O)N[C@@H](C)C(=O)N[C@@H]([C@@H](C)O)C(=O)N1)[C@@H](C)O)C(=O)N1CCC[C@H]1C(=O)N[C@@H](CO)C(=O)N[C@@H](CO)C(=O)N[C@H](C(=O)N[C@@H](CC(N)=O)C(=O)N[C@H](C(=O)NCC(=O)N[C@@H](Cc1c[nH]cn1)C(=O)N[C@@H](CCC(=O)O)C(=O)N[C@H](C(=O)N[C@@H](Cc1ccc(O)cc1)C(N)=O)[C@@H](C)O)C(C)C)[C@@H](C)O, modifications are with respect to human amylin; also called compound 107)	0.387
K([γGlu-C20 diacid])CNTATCATQRLAEFLRHSSPNFGAIPSSTNVGSHTY-NH2 (disulfide 2-7; N-terminus assumed; SMILES CC[C@H](C)[C@H](NC(=O)[C@H](C)NC(=O)CNC(=O)[C@H](Cc1ccccc1)NC(=O)[C@H](CC(N)=O)NC(=O)[C@@H]1CCCN1C(=O)[C@H](CO)NC(=O)[C@H](CO)NC(=O)[C@H](Cc1c[nH]cn1)NC(=O)[C@H](CCCNC(=N)N)NC(=O)[C@H](CC(C)C)NC(=O)[C@H](Cc1ccccc1)NC(=O)[C@H](CCC(=O)O)NC(=O)[C@H](C)NC(=O)[C@H](CC(C)C)NC(=O)[C@H](CCCNC(=N)N)NC(=O)[C@H](CCC(N)=O)NC(=O)[C@@H](NC(=O)[C@H](C)NC(=O)[C@@H]1CSSC[C@H](NC(=O)[C@@H](N)CCCCNC(=O)CC[C@H](NC(=O)CCCCCCCCCCCCCCCCCCC(=O)O)C(=O)O)C(=O)N[C@@H](CC(N)=O)C(=O)N[C@@H]([C@@H](C)O)C(=O)N[C@@H](C)C(=O)N[C@@H]([C@@H](C)O)C(=O)N1)[C@@H](C)O)C(=O)N1CCC[C@H]1C(=O)N[C@@H](CO)C(=O)N[C@@H](CO)C(=O)N[C@H](C(=O)N[C@@H](CC(N)=O)C(=O)N[C@H](C(=O)NCC(=O)N[C@@H](CO)C(=O)N[C@@H](Cc1c[nH]cn1)C(=O)N[C@H](C(=O)N[C@@H](Cc1ccc(O)cc1)C(N)=O)[C@@H](C)O)C(C)C)[C@@H](C)O, modifications are with respect to human amylin)	0.992

Stronger by IC50, values ahead:

IC50 [nM]	Binder
0.281	K([γGlu-C20 diacid])CNTATCATQRLADFLRHSSPNFGAIPSSTNVGPRTY-NH2 (disulfide 2-7; N-terminus assumed; SMILES CC[C@H](C)[C@H](NC(=O)[C@H](C)NC(=O)CNC(=O)[C@H](Cc1ccccc1)NC(=O)[C@H](CC(N)=O)NC(=O)[C@@H]1CCCN1C(=O)[C@H](CO)NC(=O)[C@H](CO)NC(=O)[C@H](Cc1c[nH]cn1)NC(=O)[C@H](CCCNC(=N)N)NC(=O)[C@H](CC(C)C)NC(=O)[C@H](Cc1ccccc1)NC(=O)[C@H](CC(=O)O)NC(=O)[C@H](C)NC(=O)[C@H](CC(C)C)NC(=O)[C@H](CCCNC(=N)N)NC(=O)[C@H](CCC(N)=O)NC(=O)[C@@H](NC(=O)[C@H](C)NC(=O)[C@@H]1CSSC[C@H](NC(=O)[C@@H](N)CCCCNC(=O)CC[C@H](NC(=O)CCCCCCCCCCCCCCCCCCC(=O)O)C(=O)O)C(=O)N[C@@H](CC(N)=O)C(=O)N[C@@H]([C@@H](C)O)C(=O)N[C@@H](C)C(=O)N[C@@H]([C@@H](C)O)C(=O)N1)[C@@H](C)O)C(=O)N1CCC[C@H]1C(=O)N[C@@H](CO)C(=O)N[C@@H](CO)C(=O)N[C@H](C(=O)N[C@@H](CC(N)=O)C(=O)N[C@H](C(=O)NCC(=O)N1CCC[C@H]1C(=O)N[C@@H](CCCNC(=N)N)C(=O)N[C@H](C(=O)N[C@@H](Cc1ccc(O)cc1)C(N)=O)[C@@H](C)O)C(C)C)[C@@H](C)O, modifications are with respect to human amylin)
0.232	K([γGlu-C20 diacid])CNTATCATQRLAEFLRHSSPNFGAIPSSTNVGRETY-NH2 (disulfide 2-7; N-terminus assumed; SMILES CC[C@H](C)[C@H](NC(=O)[C@H](C)NC(=O)CNC(=O)[C@H](Cc1ccccc1)NC(=O)[C@H](CC(N)=O)NC(=O)[C@@H]1CCCN1C(=O)[C@H](CO)NC(=O)[C@H](CO)NC(=O)[C@H](Cc1c[nH]cn1)NC(=O)[C@H](CCCNC(=N)N)NC(=O)[C@H](CC(C)C)NC(=O)[C@H](Cc1ccccc1)NC(=O)[C@H](CCC(=O)O)NC(=O)[C@H](C)NC(=O)[C@H](CC(C)C)NC(=O)[C@H](CCCNC(=N)N)NC(=O)[C@H](CCC(N)=O)NC(=O)[C@@H](NC(=O)[C@H](C)NC(=O)[C@@H]1CSSC[C@H](NC(=O)[C@@H](N)CCCCNC(=O)CC[C@H](NC(=O)CCCCCCCCCCCCCCCCCCC(=O)O)C(=O)O)C(=O)N[C@@H](CC(N)=O)C(=O)N[C@@H]([C@@H](C)O)C(=O)N[C@@H](C)C(=O)N[C@@H]([C@@H](C)O)C(=O)N1)[C@@H](C)O)C(=O)N1CCC[C@H]1C(=O)N[C@@H](CO)C(=O)N[C@@H](CO)C(=O)N[C@H](C(=O)N[C@@H](CC(N)=O)C(=O)N[C@H](C(=O)NCC(=O)N[C@@H](CCCNC(=N)N)C(=O)N[C@@H](CCC(=O)O)C(=O)N[C@H](C(=O)N[C@@H](Cc1ccc(O)cc1)C(N)=O)[C@@H](C)O)C(C)C)[C@@H](C)O, modifications are with respect to human amylin)
0.196	K([γGlu-C20 diacid])CNTATCATQRLADFLRHSSPNFGAIPSSTNVGPETY-NH2 (disulfide 2-7; N-terminus assumed; SMILES CC[C@H](C)[C@H](NC(=O)[C@H](C)NC(=O)CNC(=O)[C@H](Cc1ccccc1)NC(=O)[C@H](CC(N)=O)NC(=O)[C@@H]1CCCN1C(=O)[C@H](CO)NC(=O)[C@H](CO)NC(=O)[C@H](Cc1c[nH]cn1)NC(=O)[C@H](CCCNC(=N)N)NC(=O)[C@H](CC(C)C)NC(=O)[C@H](Cc1ccccc1)NC(=O)[C@H](CC(=O)O)NC(=O)[C@H](C)NC(=O)[C@H](CC(C)C)NC(=O)[C@H](CCCNC(=N)N)NC(=O)[C@H](CCC(N)=O)NC(=O)[C@@H](NC(=O)[C@H](C)NC(=O)[C@@H]1CSSC[C@H](NC(=O)[C@@H](N)CCCCNC(=O)CC[C@H](NC(=O)CCCCCCCCCCCCCCCCCCC(=O)O)C(=O)O)C(=O)N[C@@H](CC(N)=O)C(=O)N[C@@H]([C@@H](C)O)C(=O)N[C@@H](C)C(=O)N[C@@H]([C@@H](C)O)C(=O)N1)[C@@H](C)O)C(=O)N1CCC[C@H]1C(=O)N[C@@H](CO)C(=O)N[C@@H](CO)C(=O)N[C@H](C(=O)N[C@@H](CC(N)=O)C(=O)N[C@H](C(=O)NCC(=O)N1CCC[C@H]1C(=O)N[C@@H](CCC(=O)O)C(=O)N[C@H](C(=O)N[C@@H](Cc1ccc(O)cc1)C(N)=O)[C@@H](C)O)C(C)C)[C@@H](C)O, modifications are with respect to human amylin)
